The results in this text go back to paper PMC8139589, “A flexible multiplexed immunosensor for point-of-care in situ wound monitoring”.

The target of one data set is TNF-alpha (human, UniProt P01375 77-233). Description: electrochemical aptasensor (SWV); serum; 0-2 ng/ml; Serum as wound-exudate mimic; about 30 min incubation to equilibrium; aptamers immobilized at 10 uM in TE buffer, MCH passivation; assay pH and temperature not. The following applies: protein: commercial; chain copies: 3; label: 5' methylene blue; 3' C3 thiol; hairpin.

Another data set has as its target IL-8 (human, UniProt P10145 28-99). The data set can be described thus: electrochemical aptasensor (SWV); serum; 0-30 ng/ml; Serum as wound-exudate mimic; about 30 min incubation to equilibrium; aptamers immobilized at 10 uM in TE buffer, MCH passivation; assay pH and temperature not. The following applies: protein: commercial; label: 5' C6 thiol; 3' methylene blue; hairpin.

Another data set concerns the target IL-6 (human, UniProt P05231 30-212). The data set is described as above. The following applies: protein: commercial; label: 5' C6 thiol; 3' methylene blue; hairpin.

Chain of IL-6 (P05231 30-212): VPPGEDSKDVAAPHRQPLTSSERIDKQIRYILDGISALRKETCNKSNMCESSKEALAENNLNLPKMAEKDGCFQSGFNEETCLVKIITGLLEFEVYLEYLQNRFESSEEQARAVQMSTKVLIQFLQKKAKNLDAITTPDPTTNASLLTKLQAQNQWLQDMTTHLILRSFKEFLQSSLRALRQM
Chain of IL-8 (P10145 28-99): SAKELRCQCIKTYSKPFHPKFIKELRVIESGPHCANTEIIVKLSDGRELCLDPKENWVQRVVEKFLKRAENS
Chain of TNF-alpha (P01375 77-233): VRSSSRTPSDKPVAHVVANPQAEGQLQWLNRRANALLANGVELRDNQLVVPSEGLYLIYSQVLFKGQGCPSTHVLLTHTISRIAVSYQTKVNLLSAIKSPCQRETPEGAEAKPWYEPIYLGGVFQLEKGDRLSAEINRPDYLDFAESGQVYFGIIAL

Take GGAGUAUCUGAUGACAAUUCGGAGCUCC (structured_RNA, phosphorothioate at all linkages) [TNF-alpha aptamer]: the binding result in the data set with TNF-alpha is on record as “binds”.

Regarding GGGGGCUUAUCAUUCCAUUUAGUGUUAUGAUAACC (structured_RNA, none printed (ribo)) [IL-8 aptamer], in the data set with IL-8, the binding result is reported as “binds”. As for GGTGGCAGGAGGACTATTTATTTGCTTTTCT (structured_DNA) [IL-6 aptamer], in the data set with IL-6, the binding result was “binds”.
